Columns and labels:
[1] = molecular target: FcγRII (CD32) on human CD4+ T cells (human (endogenous in CD4+ T cells of blood donors)) (UniProt P12318)
[2] = molecular target: FcγRII (CD32) on human CD4+ T cells (human (endogenous in CD4+ T cells of blood donors)) (UniProt P12318); assay: flow cytometry on cells; activated purified CD4+ T cells incubated with aIgG (100 μg/ml) for 2 h at 37°C, washed three times, stained with biotinylated anti-human IgG Fc and streptavidin PerCP; percent of aIgG+CD4+ T cells

Chain of UniProt P12318 (P12318 34-317): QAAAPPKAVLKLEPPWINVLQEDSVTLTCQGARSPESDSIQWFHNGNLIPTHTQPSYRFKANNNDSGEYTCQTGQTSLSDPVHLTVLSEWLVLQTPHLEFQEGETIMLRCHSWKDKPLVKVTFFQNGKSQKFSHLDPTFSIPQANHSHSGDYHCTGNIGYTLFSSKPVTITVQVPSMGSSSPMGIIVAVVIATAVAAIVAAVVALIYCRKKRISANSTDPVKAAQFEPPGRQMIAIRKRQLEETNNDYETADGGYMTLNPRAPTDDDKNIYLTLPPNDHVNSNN

IFN-γ in the supernatant (ELISA) after cIgG, then suboptimal PHA for 5 d [1]: 4950 pg/mL
IL-5 in the supernatant (ELISA) after cIgG, then suboptimal PHA for 5 d [1]: 77.9 pg/mL
IL-10 in the supernatant (ELISA) after cIgG, then suboptimal PHA for 5 d [1]: 143 pg/mL
TNF-α in the supernatant (ELISA) after cIgG, then suboptimal PHA for 5 d [1]: 59.1 pg/mL
percent of aIgG+CD4+ T cells [2]: 14.1%
Substance: Human IgG (heat-aggregated IgG, used as a model of immune complexes; or immobilised on plastic) (ligand)

Source: publication PMC6284025
